Drawing on publication PMC12102759 (2025), this text covers screen value for 56 variants.

The labels stand for the following.
B1: PEX5 peptide 240-255 (Peroxisomal targeting signal 1 receptor), 16-mer library wild type / PEX14 Pex14 (PEX14 PEX14, residues 16-84) (parent complex)
chain 1: AEQWAAEFIQQQGTSD
chain 2: TPGSENVLPREPLIATAVKFLQNSRVRQSPLATRRAFLKKKGLTDEEIDMAFQQSGTAADEPSSLGPAT

Variants of B1 are the subject of the assay. Kind of assay: proteomic peptide phage display deep mutational scan (ProP-PD DMS): M13 P8 16-mer library selected against immobilised GST-tagged bait for four days (rounds), NGS of the eluted pools per day and pseudo-replica; bait immobilised on MaxiSorp plates (10 µg), library pre-cleared on GST, 2 h binding at 4 °C, five washes; one round per day, days 1-4; value from days 2 and 3.
On to chain 1 AEQWAAEFHQQQGTSD [chain 1 I9H], for which the screen value was 0.0279 average fractional NGS count over selection days 2 and 3 (reads of this peptide / all reads for the bait, averaged over ….
For chain 1 AEQWAAEFAQQQGTSD [chain 1 I9A], the screen value was 0.00188 average fractional NGS count over selection days 2 and 3 (reads of this peptide / all reads for the bait, averaged over ….
For the variant chain 1 AEQWAAEFMQQQGTSD [chain 1 I9M], the screen value was 0.00443 average fractional NGS count over selection days 2 and 3 (reads of this peptide / all reads for the bait, averaged over ….
Take chain 1 AEQWAAEFTQQQGTSD [chain 1 I9T]: the screen value was 0.000404 average fractional NGS count over selection days 2 and 3 (reads of this peptide / all reads for the bait, averaged over ….
For the variant chain 1 AEQWAAEFIQQQGPSD [chain 1 T14P], the screen value was 0.00162 average fractional NGS count over selection days 2 and 3 (reads of this peptide / all reads for the bait, averaged over ….
The figure for chain 1 AEQWAAEFIQQQGISD [chain 1 T14I] is 0.00075 average fractional NGS count over selection days 2 and 3 (reads of this peptide / all reads for the bait, averaged over …; for chain 1 AEQWAAEFIQQQGNSD [chain 1 T14N] it is 0.000434 average fractional NGS count over selection days 2 and 3 (reads of this peptide / all reads for the bait, averaged over …; for chain 1 AEQWAAEFIQQQGESD [chain 1 T14E] it is 0.000967 average fractional NGS count over selection days 2 and 3 (reads of this peptide / all reads for the bait, averaged over ….
As for chain 1 AEQWAAEFIQQQGGSD [chain 1 T14G], the figure is 0.000345 average fractional NGS count over selection days 2 and 3 (reads of this peptide / all reads for the bait, averaged over …; as for chain 1 AEQWAAEFIQQQGHSD [chain 1 T14H], 0.00166 average fractional NGS count over selection days 2 and 3 (reads of this peptide / all reads for the bait, averaged over ….
As for chain 1 AEQWAAEFIQQQGWSD [chain 1 T14W], the figure is 0.000366 average fractional NGS count over selection days 2 and 3 (reads of this peptide / all reads for the bait, averaged over …; as for chain 1 AEQWAAEFIQQQGFSD [chain 1 T14F], 0.00226 average fractional NGS count over selection days 2 and 3 (reads of this peptide / all reads for the bait, averaged over ….
Consider chain 1 AEQWAAEFIQQQGQSD [chain 1 T14Q], for which the screen value is 0.000835 average fractional NGS count over selection days 2 and 3 (reads of this peptide / all reads for the bait, averaged over ….
As to chain 1 AEQWAAEFIQQLGTSD [chain 1 Q12L], the screen value is 0.00232 average fractional NGS count over selection days 2 and 3 (reads of this peptide / all reads for the bait, averaged over ….
The figure for chain 1 AEQWAAEFIQQVGTSD [chain 1 Q12V] is 0.0011 average fractional NGS count over selection days 2 and 3 (reads of this peptide / all reads for the bait, averaged over …; for chain 1 AEQWAAEFIQQDGTSD [chain 1 Q12D] it is 0.00045 average fractional NGS count over selection days 2 and 3 (reads of this peptide / all reads for the bait, averaged over …; for chain 1 AEQWAAEFIQQFGTSD [chain 1 Q12F] it is 0.00145 average fractional NGS count over selection days 2 and 3 (reads of this peptide / all reads for the bait, averaged over ….
The figure for chain 1 AEQWAAEFIQQSGTSD [chain 1 Q12S] is 0.00474 average fractional NGS count over selection days 2 and 3 (reads of this peptide / all reads for the bait, averaged over …; for chain 1 AEQWAAEFIQQIGTSD [chain 1 Q12I] it is 0.00133 average fractional NGS count over selection days 2 and 3 (reads of this peptide / all reads for the bait, averaged over ….
As for chain 1 AEQWAAEFIQQGGTSD [chain 1 Q12G], the figure is 0.00219 average fractional NGS count over selection days 2 and 3 (reads of this peptide / all reads for the bait, averaged over ….
In the case of chain 1 AEQWAAEFIQQYGTSD [chain 1 Q12Y], the screen value was 0.00103 average fractional NGS count over selection days 2 and 3 (reads of this peptide / all reads for the bait, averaged over ….
In the case of chain 1 AEQWAAEFIQQEGTSD [chain 1 Q12E], the screen value is 0.00182 average fractional NGS count over selection days 2 and 3 (reads of this peptide / all reads for the bait, averaged over ….
Take chain 1 AEQWAAEFIQQWGTSD [chain 1 Q12W]: the screen value was 0.000968 average fractional NGS count over selection days 2 and 3 (reads of this peptide / all reads for the bait, averaged over ….
As for chain 1 AEQWAAEFIHQQGTSD [chain 1 Q10H], the figure is 0.00189 average fractional NGS count over selection days 2 and 3 (reads of this peptide / all reads for the bait, averaged over …; as for chain 1 AEQWAAEFITQQGTSD [chain 1 Q10T], 0.00279 average fractional NGS count over selection days 2 and 3 (reads of this peptide / all reads for the bait, averaged over …; as for chain 1 AEQWAAEFIMQQGTSD [chain 1 Q10M], 0.00324 average fractional NGS count over selection days 2 and 3 (reads of this peptide / all reads for the bait, averaged over ….
On to chain 1 AEQWAAEFIVQQGTSD [chain 1 Q10V], for which the screen value is 0.00204 average fractional NGS count over selection days 2 and 3 (reads of this peptide / all reads for the bait, averaged over ….
On to chain 1 AEQWAAEFILQQGTSD [chain 1 Q10L], for which the screen value was 0.00121 average fractional NGS count over selection days 2 and 3 (reads of this peptide / all reads for the bait, averaged over ….
The figure for chain 1 AEQWAAEFINQQGTSD [chain 1 Q10N] is 0.00173 average fractional NGS count over selection days 2 and 3 (reads of this peptide / all reads for the bait, averaged over …; for chain 1 AEQWAAEFIRQQGTSD [chain 1 Q10R] it is 0.00109 average fractional NGS count over selection days 2 and 3 (reads of this peptide / all reads for the bait, averaged over ….
As for chain 1 AEQWAAEFIEQQGTSD [chain 1 Q10E], the figure is 0.0048 average fractional NGS count over selection days 2 and 3 (reads of this peptide / all reads for the bait, averaged over ….
As for chain 1 AEQWAAEFIFQQGTSD [chain 1 Q10F], the figure is 0.00183 average fractional NGS count over selection days 2 and 3 (reads of this peptide / all reads for the bait, averaged over …; as for chain 1 AEQWAAEFIGQQGTSD [chain 1 Q10G], 0.00258 average fractional NGS count over selection days 2 and 3 (reads of this peptide / all reads for the bait, averaged over …; as for chain 1 AGQWAAEFIQQQGTSD [chain 1 E2G], 0.000866 average fractional NGS count over selection days 2 and 3 (reads of this peptide / all reads for the bait, averaged over ….
Turning to chain 1 APQWAAEFIQQQGTSD [chain 1 E2P], the screen value was 0.000798 average fractional NGS count over selection days 2 and 3 (reads of this peptide / all reads for the bait, averaged over ….
Consider chain 1 AWQWAAEFIQQQGTSD [chain 1 E2W], for which the screen value is 0.000954 average fractional NGS count over selection days 2 and 3 (reads of this peptide / all reads for the bait, averaged over ….
As for chain 1 ANQWAAEFIQQQGTSD [chain 1 E2N], the figure is 0.0028 average fractional NGS count over selection days 2 and 3 (reads of this peptide / all reads for the bait, averaged over ….
As for chain 1 ATQWAAEFIQQQGTSD [chain 1 E2T], the figure is 0.00227 average fractional NGS count over selection days 2 and 3 (reads of this peptide / all reads for the bait, averaged over ….
As for chain 1 ARQWAAEFIQQQGTSD [chain 1 E2R], the figure is 0.00281 average fractional NGS count over selection days 2 and 3 (reads of this peptide / all reads for the bait, averaged over ….
As for chain 1 ASQWAAEFIQQQGTSD [chain 1 E2S], the screen value was 0.000804 average fractional NGS count over selection days 2 and 3 (reads of this peptide / all reads for the bait, averaged over ….
Consider chain 1 AMQWAAEFIQQQGTSD [chain 1 E2M], for which the screen value was 0.00435 average fractional NGS count over selection days 2 and 3 (reads of this peptide / all reads for the bait, averaged over ….
As for chain 1 AYQWAAEFIQQQGTSD [chain 1 E2Y], the figure is 0.00378 average fractional NGS count over selection days 2 and 3 (reads of this peptide / all reads for the bait, averaged over …; as for chain 1 ADQWAAEFIQQQGTSD [chain 1 E2D], 0.00048 average fractional NGS count over selection days 2 and 3 (reads of this peptide / all reads for the bait, averaged over ….
Consider chain 1 AEQWAAEFIQQQGTRD [chain 1 S15R], for which the screen value was 0.00217 average fractional NGS count over selection days 2 and 3 (reads of this peptide / all reads for the bait, averaged over ….
As for chain 1 AEQWAAEFIQQQGTTD [chain 1 S15T], the figure is 0.00362 average fractional NGS count over selection days 2 and 3 (reads of this peptide / all reads for the bait, averaged over …; as for chain 1 AEQWAAEFIQQQGTQD [chain 1 S15Q], 0.0029 average fractional NGS count over selection days 2 and 3 (reads of this peptide / all reads for the bait, averaged over …; as for chain 1 AEQWAAEFIQQQGTGD [chain 1 S15G], 0.00221 average fractional NGS count over selection days 2 and 3 (reads of this peptide / all reads for the bait, averaged over ….
chain 1 AEQWAAEFIQQQGTLD [chain 1 S15L]: the screen value was 0.00083 average fractional NGS count over selection days 2 and 3 (reads of this peptide / all reads for the bait, averaged over ….
As for chain 1 AEQWAAEFIQQQKTSD [chain 1 G13K], the figure is 0.000992 average fractional NGS count over selection days 2 and 3 (reads of this peptide / all reads for the bait, averaged over …; as for chain 1 AEQWAAEFIQQQATSD [chain 1 G13A], 0.00173 average fractional NGS count over selection days 2 and 3 (reads of this peptide / all reads for the bait, averaged over ….
As for chain 1 AEQWAAEFIQQQETSD [chain 1 G13E], the figure is 0.000748 average fractional NGS count over selection days 2 and 3 (reads of this peptide / all reads for the bait, averaged over …; as for chain 1 AEQWAAEFIQQQQTSD [chain 1 G13Q], 0.000525 average fractional NGS count over selection days 2 and 3 (reads of this peptide / all reads for the bait, averaged over ….
With chain 1 AEQWAAEFIQQQYTSD [chain 1 G13Y], the screen value is 0.000307 average fractional NGS count over selection days 2 and 3 (reads of this peptide / all reads for the bait, averaged over ….
Consider chain 1 AEQWAAEFIQQQSTSD [chain 1 G13S], for which the screen value is 0.00151 average fractional NGS count over selection days 2 and 3 (reads of this peptide / all reads for the bait, averaged over ….
Regarding chain 1 AEQWAAEFIQQQMTSD [chain 1 G13M], the screen value was 0.000519 average fractional NGS count over selection days 2 and 3 (reads of this peptide / all reads for the bait, averaged over ….
With chain 1 AEQWAAEFIQQQTTSD [chain 1 G13T], the screen value is 0.000744 average fractional NGS count over selection days 2 and 3 (reads of this peptide / all reads for the bait, averaged over ….
